The supplement of paper PMC7125110
± gives the standard error. For some of these results: Variants at the floor of the assay were thinned out.

B1: glmS ribozyme (parent)
chain: AUAAAAGCGCCAGAACUACAGAAAUGUAGUUGACGAGGAGGAGGUUUAUCGAAUUUUCGGCGGAUGCCUCCAAA

Experiments:
Conditions in all cases: with glucosamine-6-phosphate
glucosamine-6-phosphate [1] = variants of: B1; assay: kcat; higher = faster cleavage; RNA array
Procedure, shortened: (§1)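 Weighted Michaelis–Menten fits across concentrations supplied kcat and KM, based on kobs from one- or two-exponential decay fits to normalised per-tile medians. The data came from barcoded ribozyme variants transcribed in situ by E. coli RNA polymerase on sequenced MiSeq chips and tracked at 37 °C by a hybridised Cy3 probe. Glucosamine-6-phosphate (40 μM to 10 mM) in HEPES/KCl/Mg(OAc)2 buffer was flowed in.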

glucosamine-6-phosphate [2] = variants of: B1; assay: KM; higher = weaker cofactor use; RNA array
Procedure, shortened: as §1

glucosamine-6-phosphate [3] = variants of: B1; assay: self-cleavage kobs at 40 uM GlcN6P; higher = faster cleavage; RNA array
Procedure, shortened: as §1

glucosamine-6-phosphate [4] = variants of: B1; assay: self-cleavage kobs at 160 uM GlcN6P; higher = faster cleavage; RNA array
Procedure, shortened: as §1

glucosamine-6-phosphate [5] = variants of: B1; assay: self-cleavage kobs at 640 uM GlcN6P; higher = faster cleavage; RNA array
Procedure, shortened: as §1

glucosamine-6-phosphate [6] = variants of: B1; assay: self-cleavage kobs at 2500 uM GlcN6P; higher = faster cleavage; RNA array
Procedure, shortened: as §1

glucosamine-6-phosphate [7] = variants of: B1; assay: self-cleavage kobs at 10000 uM GlcN6P; higher = faster cleavage; RNA array
Procedure, shortened: as §1

Variant	kcat (glucosamine-6-phosphate [1]) [s⁻¹]	KM (glucosamine-6-phosphate [2]) [µM]	self-cleavage kobs at 40 uM GlcN6P (glucosamine-6-phosphate [3]) [s⁻¹]	self-cleavage kobs at 160 uM GlcN6P (glucosamine-6-phosphate [4]) [s⁻¹]	self-cleavage kobs at 640 uM GlcN6P (glucosamine-6-phosphate [5]) [s⁻¹]	self-cleavage kobs at 2500 uM GlcN6P (glucosamine-6-phosphate [6]) [s⁻¹]	self-cleavage kobs at 10000 uM GlcN6P (glucosamine-6-phosphate [7]) [s⁻¹]
A14U U55C	0.00666 ± 0.0014	1760 ± 500	0.000181 ± 2.3e-05	0.000488 ± 8.3e-05	0.00161 ± 0.00025	0.00352 ± 0.00053	0.0066 ± 0.001
C16U U30A G40A	0.000118 ± 1.8e-05	1030 ± 380	< 1e-05	–	4.8e-05 ± 2e-05	8.29e-05 ± 2.2e-05	–
G44C U47A	8.35e-05 ± 6.6e-06	1270 ± 350	–	–	–	5.07e-05 ± 1.6e-05	7.67e-05 ± 1.8e-05
G44C U47C	1.4e-05 ± 4.3e-06	–	–	–	–	–	–
C34A G51C	< 1e-05	–	< 1e-05	–	–	–	< 1e-05
U57G	0.000109 ± 3.4e-06	2910 ± 250	–	–	2.22e-05 ± 1.9e-06	4.95e-05 ± 1.4e-06	8.52e-05 ± 1.5e-06
C10G G60C	0.00245 ± 0.00047	2180 ± 610	3.56e-05 ± 6.7e-06	0.000167 ± 2.9e-05	0.000733 ± 8.9e-05	0.00117 ± 0.00023	0.00198 ± 0.00023
A15U U30G	0.0605 ± 0.018	3400 ± 1200	0.000777 ± 7.3e-05	0.00242 ± 0.00032	0.00977 ± 0.0011	0.0219 ± 0.0035	0.0582 ± 0.012
A6G U54A	0.000561 ± 5.2e-05	1600 ± 440	–	–	0.000143 ± 5.7e-05	0.000387 ± 0.00011	0.000476 ± 7.7e-05
G13U A14G C61A	1.4e-05 ± 5.4e-06	–	< 1e-05	–	–	–	–
G44A G66U	2.15e-05 ± 1.4e-06	2150 ± 520	–	–	–	–	–
G13U U47C	7.04e-05 ± 3.2e-06	1030 ± 150	–	–	2.85e-05 ± 1.2e-05	4.74e-05 ± 1.2e-05	6.59e-05 ± 1.6e-05
A12G A33G U57A G59U	< 1e-05	–	–	–	< 1e-05	< 1e-05	–
G40C U55A	9.7e-05 ± 1.9e-05	–	–	0.000138 ± 6.6e-05	0.000125 ± 2.3e-05	7.26e-05 ± 1.4e-05	0.000133 ± 2.8e-05
C11G A14U C70A	3.61e-05 ± 1.3e-05	–	–	–	–	–	–
G62C C68G	1.08e-05 ± 2.7e-06	–	–	–	–	–	< 1e-05
G66U C67G	0.000827 ± 0.00015	2210 ± 730	3e-05 ± 7.9e-06	4.82e-05 ± 7.9e-06	0.000262 ± 5.1e-05	0.000418 ± 4.7e-05	0.000687 ± 6.4e-05
A12C C34A	< 1e-05	–	< 1e-05	< 1e-05	< 1e-05	< 1e-05	–
